Here are results for three molecules from patent US20190111164A1.

Holding throughout (test): glycopeptide microarray, antibody at 50 ug/mL
In one experiment the target is T1, IgA-Pep11.
T1 sequence (peptide, Tn (GalNAc, marked *) on S3, S5 and T9): KPSPSTPPTPSC

Another experiment has as its target Tn3 linker.
The next experiment has as its target T2, IgA-Pep13.
T2 sequence (peptide, Tn (GalNAc, marked *) on S3 and T7): KPSTPPTPSPSC

Another experiment concerns the target PADRE Tn3b.
The target of another experiment is T3, B-MUC2.
T3 sequence (peptide, N-terminal acetyl; Tn (GalNAc, marked *) on T3; C-terminal amide): PTTTPLK

A further experiment addresses T4, D-MUC2.
T4 sequence (peptide, N-terminal acetyl; Tn (GalNAc, marked *) on T2 and T3; C-terminal amide): PTTTPLK

Numbering of substitutions follows the chain as printed.

B1: 2F3 variant #6 (antibody, IgG1, V domains shown)
VH: QVQLLESGGGLVQPGGSLRLSCAASGFTFDSYAMSWVRQAPGKGLEWVSAISGSGASTYYADSVKGRFSISRDNSKNTLYLQMNSLRAEDTAVYYCAIRREYSGYAPFDYWGQGTLVIVSS
VL: DIVMTQTPSSLSASVGDRVTITCRASQGISSWLAWYQQKPEKAPRSLIYAASSLQSGVPSRFSGSGSGTDFTLTISSLQPEDFATYYCQQYISYPYTFGQGTKLEIK
In the case of B1, the RLU was 311 RLU with IgA-Pep11, 21 RLU in the experiment with Tn3 linker, 253 RLU with IgA-Pep13 and -84 RLU with PADRE Tn3b.

B2: 2F3 parent antibody (antibody, V domains shown)
VH: B1 VH with V2I, Q3T, L5R, A56D, I118T
VL: B1 VL
For the molecule B2, the RLU with Tn3 linker worked out at 8 RLU; with PADRE Tn3b it was 13 RLU.

B3: 2F3 variant #17v2 (antibody, IgG1, V domains shown)
VH: B1 VH with V2I, Q3T, L5R, A56H, S85N, I118T
VL: B1 VL
Turning to B3, the RLU is 237 RLU with B-MUC2, 24 RLU with Tn3 linker, 179 RLU with D-MUC2 and 49 RLU with PADRE Tn3b.
